Data on 2 variants can be found in IntAct's records for PubMed 17474147.

First the molecules themselves.
B1: 1-phosphatidylinositol 4,5-bisphosphate phosphodiesterase gamma-1 (Homo sapiens), P19174 (parent)
chain: MAGAASPCANGCGPGAPSDAEVLHLCRSLEVGTVMTLFYSKKSQRPERKTFQVKLETRQITWSRGADKIEGAIDIREIKEIRPGKTSRDFDRYQEDPAFRPDQSHCFVILYGMEFRLKTLSLQATSEDEVNMWIKGLTWLMEDTLQAPTPLQIERWLRKQFYSVDRNREDRISAKDLKNMLSQVNYRVPNMRFLRERLTDLEQRSGDITYGQFAQLYRSLMYSAQKTMDLPFLEASTLRAGERPELCRVSLPEFQQFLLDYQGELWAVDRLQVQEFMLSFLRDPLREIEEPYFFLDEFVTFLFSKENSVWNSQLDAVCPDTMNNPLSHYWISSSHNTYLTGDQFSSESSLEAYARCLRMGCRCIELDCWDGPDGMPVIYHGHTLTTKIKFSDVLHTIKEHAFVASEYPVILSIEDHCSIAQQRNMAQYFKKVLGDTLLTKPVEISADGLPSPNQLKRKILIKHKKLAEGSAYEEVPTSMMYSENDISNSIKNGILYLEDPVNHEWYPHYFVLTSSKIYYSEETSSDQGNEDEEEPKEVSSSTELHSNEKWFHGKLGAGRDGRHIAERLLTEYCIETGAPDGSFLVRESETFVGDYTLSFWRNGKVQHCRIHSRQDAGTPKFFLTDNLVFDSLYDLITHYQQVPLRCNEFEMRLSEPVPQTNAHESKEWYHASLTRAQAEHMLMRVPRDGAFLVRKRNEPNSYAISFRAEGKIKHCRVQQEGQTVMLGNSEFDSLVDLISYYEKHPLYRKMKLRYPINEEALEKIGTAEPDYGALYEGRNPGFYVEANPMPTFKCAVKALFDYKAQREDELTFIKSAIIQNVEKQEGGWWRGDYGGKKQLWFPSNYVEEMVNPVALEPEREHLDENSPLGDLLRGVLDVPACQIAIRPEGKNNRLFVFSISMASVAHWSLDVAADSQEELQDWVKKIREVAQTADARLTEGKIMERRKKIALELSELVVYCRPVPFDEEKIGTERACYRDMSSFPETKAEKYVNKAKGKKFLQYNRLQLSRIYPKGQRLDSSNYDPLPMWICGSQLVALNFQTPDKPMQMNQALFMTGRHCGYVLQPSTMRDEAFDPFDKSSLRGLEPCAISIEVLGARHLPKNGRGIVCPFVEIEVAGAEYDSTKQKTEFVVDNGLNPVWPAKPFHFQISNPEFAFLRFVVYEEDMFSDQNFLAQATFPVKGLKTGYRAVPLKNNYSEDLELASLLIKIDIFPAKENGDLSPFSGTSLRERGSDASGQLFHGRAREGSFESRYQQPFEDFRISQEHLADHFDSRERRAPRRTRVNGDNRL
partner: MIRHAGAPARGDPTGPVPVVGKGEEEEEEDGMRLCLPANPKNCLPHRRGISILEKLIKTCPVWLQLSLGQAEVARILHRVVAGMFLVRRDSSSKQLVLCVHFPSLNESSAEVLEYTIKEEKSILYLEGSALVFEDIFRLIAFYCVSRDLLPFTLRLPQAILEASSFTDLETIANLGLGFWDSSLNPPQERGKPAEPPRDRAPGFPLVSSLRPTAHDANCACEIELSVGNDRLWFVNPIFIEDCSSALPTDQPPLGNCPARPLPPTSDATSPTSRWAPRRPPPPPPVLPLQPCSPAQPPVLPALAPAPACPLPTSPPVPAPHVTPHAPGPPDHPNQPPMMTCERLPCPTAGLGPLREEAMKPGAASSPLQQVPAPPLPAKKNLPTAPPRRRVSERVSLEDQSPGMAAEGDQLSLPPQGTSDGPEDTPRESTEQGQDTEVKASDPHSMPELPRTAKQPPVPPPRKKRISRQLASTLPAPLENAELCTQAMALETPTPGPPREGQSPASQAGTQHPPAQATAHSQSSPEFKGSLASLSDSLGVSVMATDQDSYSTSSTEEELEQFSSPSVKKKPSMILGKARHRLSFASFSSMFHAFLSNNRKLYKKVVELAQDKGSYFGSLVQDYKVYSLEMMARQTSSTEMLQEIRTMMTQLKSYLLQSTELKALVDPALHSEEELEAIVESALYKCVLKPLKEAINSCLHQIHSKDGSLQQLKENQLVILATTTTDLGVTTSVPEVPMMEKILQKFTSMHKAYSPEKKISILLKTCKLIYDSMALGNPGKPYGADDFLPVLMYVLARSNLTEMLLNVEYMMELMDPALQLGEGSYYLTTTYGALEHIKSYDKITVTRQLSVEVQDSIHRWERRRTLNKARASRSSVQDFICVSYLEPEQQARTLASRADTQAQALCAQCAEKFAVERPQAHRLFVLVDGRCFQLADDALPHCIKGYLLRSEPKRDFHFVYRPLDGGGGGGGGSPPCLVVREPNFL
B2: 1-phosphatidylinositol 4,5-bisphosphate phosphodiesterase gamma-1 (Homo sapiens), P19174 (parent)
chain: B1 chain

Test [1] covers variants of B1. Conditions: with rin3_human RIN3, Q8TB24.
Variants of B2 are the subject of test [2]. The conditions noted are these: with asap2_human ASAP2, O43150.
asap2_human ASAP2, O43150, sequence (O43150 whole entry): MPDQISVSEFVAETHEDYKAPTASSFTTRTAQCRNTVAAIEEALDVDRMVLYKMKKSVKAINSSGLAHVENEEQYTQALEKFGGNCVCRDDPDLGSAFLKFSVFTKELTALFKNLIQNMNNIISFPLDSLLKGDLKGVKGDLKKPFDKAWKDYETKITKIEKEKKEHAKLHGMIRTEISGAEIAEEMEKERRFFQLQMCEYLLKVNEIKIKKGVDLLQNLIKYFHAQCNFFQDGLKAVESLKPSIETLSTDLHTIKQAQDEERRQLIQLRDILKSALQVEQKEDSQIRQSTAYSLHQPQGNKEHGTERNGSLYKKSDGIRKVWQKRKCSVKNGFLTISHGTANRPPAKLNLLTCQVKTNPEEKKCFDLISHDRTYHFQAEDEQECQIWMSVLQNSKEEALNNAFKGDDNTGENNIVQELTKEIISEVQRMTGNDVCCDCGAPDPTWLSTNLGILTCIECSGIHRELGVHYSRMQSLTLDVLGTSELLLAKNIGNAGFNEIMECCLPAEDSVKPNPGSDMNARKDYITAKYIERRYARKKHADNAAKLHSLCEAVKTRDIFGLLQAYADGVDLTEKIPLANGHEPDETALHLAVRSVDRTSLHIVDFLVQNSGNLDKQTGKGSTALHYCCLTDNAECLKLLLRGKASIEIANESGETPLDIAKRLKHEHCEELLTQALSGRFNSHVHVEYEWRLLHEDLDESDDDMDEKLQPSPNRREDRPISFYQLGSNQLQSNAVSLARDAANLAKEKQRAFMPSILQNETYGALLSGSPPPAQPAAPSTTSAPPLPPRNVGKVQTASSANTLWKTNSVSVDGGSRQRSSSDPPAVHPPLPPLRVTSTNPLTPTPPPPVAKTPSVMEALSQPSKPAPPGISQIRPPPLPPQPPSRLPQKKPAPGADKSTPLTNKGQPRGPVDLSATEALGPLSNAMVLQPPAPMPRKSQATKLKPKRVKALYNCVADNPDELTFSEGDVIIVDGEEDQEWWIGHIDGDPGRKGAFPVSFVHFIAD
Variants of B2 are the subject of test [3]. Conditions: with abl2_human ABL2, P42684.
abl2_human ABL2, P42684, sequence (P42684 whole entry): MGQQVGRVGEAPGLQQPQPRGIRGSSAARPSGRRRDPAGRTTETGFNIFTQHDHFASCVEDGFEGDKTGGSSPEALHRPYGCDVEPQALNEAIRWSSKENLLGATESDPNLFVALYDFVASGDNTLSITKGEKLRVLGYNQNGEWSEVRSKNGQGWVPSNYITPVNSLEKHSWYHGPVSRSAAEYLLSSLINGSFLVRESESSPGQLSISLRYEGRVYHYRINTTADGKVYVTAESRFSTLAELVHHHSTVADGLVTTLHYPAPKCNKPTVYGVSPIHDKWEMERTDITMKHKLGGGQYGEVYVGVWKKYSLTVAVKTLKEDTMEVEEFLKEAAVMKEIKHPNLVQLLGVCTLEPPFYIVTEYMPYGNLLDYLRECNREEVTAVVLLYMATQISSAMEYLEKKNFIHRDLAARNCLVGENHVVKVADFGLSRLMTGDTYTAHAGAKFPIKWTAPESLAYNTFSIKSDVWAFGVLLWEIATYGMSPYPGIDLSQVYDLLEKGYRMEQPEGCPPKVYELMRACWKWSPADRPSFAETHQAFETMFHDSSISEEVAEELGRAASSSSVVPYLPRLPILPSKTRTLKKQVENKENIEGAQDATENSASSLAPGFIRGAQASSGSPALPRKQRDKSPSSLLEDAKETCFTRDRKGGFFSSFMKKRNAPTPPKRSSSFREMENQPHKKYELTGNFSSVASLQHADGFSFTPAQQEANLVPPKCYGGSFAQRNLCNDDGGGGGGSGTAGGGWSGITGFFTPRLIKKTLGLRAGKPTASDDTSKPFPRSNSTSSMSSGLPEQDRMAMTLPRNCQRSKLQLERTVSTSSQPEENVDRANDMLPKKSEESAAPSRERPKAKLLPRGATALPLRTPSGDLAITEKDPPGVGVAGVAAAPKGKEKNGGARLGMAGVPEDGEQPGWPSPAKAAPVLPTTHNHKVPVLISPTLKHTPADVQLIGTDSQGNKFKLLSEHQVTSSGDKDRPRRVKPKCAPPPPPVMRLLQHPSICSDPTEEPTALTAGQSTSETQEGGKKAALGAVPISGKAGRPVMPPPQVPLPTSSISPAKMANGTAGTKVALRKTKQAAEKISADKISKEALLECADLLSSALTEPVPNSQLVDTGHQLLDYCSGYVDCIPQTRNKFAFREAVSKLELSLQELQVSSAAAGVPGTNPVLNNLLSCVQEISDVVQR
Variants of B2 are the subject of test [4]. Conditions: with shan2_human SHANK2, Q9UPX8.
shan2_human SHANK2, Q9UPX8, sequence (Q9UPX8 whole entry): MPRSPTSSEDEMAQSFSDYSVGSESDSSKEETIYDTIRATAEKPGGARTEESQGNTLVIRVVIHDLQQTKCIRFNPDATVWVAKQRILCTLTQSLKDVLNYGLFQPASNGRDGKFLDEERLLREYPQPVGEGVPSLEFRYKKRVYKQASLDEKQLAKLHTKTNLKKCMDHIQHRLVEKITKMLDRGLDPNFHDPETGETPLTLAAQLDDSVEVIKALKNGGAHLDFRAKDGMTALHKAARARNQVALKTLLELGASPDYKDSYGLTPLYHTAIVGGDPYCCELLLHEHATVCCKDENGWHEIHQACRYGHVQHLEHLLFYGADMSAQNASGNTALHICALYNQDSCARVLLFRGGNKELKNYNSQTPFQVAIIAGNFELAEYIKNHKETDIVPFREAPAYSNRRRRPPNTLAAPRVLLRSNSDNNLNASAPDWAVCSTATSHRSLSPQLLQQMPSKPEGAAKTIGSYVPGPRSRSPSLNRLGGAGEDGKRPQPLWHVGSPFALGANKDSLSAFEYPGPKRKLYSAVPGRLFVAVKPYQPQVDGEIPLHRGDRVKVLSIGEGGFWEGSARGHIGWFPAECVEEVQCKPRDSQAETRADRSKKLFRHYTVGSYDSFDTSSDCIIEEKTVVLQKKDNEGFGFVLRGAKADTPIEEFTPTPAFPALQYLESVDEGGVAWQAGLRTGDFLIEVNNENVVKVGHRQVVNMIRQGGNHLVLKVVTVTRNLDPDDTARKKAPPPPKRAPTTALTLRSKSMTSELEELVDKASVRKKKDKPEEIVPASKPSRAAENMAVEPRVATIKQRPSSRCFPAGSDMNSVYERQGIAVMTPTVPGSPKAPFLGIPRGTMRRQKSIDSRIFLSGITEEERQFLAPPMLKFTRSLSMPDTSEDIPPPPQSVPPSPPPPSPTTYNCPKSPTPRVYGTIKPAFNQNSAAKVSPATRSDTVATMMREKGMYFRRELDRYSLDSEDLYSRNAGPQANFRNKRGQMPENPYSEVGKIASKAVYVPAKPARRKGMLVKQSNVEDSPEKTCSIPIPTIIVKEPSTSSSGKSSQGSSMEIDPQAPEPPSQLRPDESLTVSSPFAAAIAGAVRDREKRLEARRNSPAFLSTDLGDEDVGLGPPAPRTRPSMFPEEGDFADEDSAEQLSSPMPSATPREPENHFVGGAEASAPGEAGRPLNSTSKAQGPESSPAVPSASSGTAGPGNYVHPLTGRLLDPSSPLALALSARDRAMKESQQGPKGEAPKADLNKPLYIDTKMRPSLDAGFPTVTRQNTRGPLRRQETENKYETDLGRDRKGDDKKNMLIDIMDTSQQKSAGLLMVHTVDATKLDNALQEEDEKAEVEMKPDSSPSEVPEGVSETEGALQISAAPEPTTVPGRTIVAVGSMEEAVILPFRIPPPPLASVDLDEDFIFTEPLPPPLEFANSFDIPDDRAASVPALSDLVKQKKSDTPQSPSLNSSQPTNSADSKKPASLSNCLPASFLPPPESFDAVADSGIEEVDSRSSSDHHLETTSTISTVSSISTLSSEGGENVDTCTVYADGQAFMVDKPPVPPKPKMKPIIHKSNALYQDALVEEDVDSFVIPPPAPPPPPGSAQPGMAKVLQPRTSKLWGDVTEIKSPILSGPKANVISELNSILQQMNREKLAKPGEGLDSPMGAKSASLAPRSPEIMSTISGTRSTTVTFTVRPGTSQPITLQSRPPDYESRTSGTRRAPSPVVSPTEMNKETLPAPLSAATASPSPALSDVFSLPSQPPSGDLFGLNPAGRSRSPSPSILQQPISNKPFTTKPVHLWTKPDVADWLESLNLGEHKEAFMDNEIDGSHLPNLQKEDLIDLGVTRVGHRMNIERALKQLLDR
The variants in test [5] derive from B2. The conditions noted are these: with m4k1_human MAP4K1, Q92918.
m4k1_human MAP4K1, Q92918, sequence (Q92918 whole entry, looked up): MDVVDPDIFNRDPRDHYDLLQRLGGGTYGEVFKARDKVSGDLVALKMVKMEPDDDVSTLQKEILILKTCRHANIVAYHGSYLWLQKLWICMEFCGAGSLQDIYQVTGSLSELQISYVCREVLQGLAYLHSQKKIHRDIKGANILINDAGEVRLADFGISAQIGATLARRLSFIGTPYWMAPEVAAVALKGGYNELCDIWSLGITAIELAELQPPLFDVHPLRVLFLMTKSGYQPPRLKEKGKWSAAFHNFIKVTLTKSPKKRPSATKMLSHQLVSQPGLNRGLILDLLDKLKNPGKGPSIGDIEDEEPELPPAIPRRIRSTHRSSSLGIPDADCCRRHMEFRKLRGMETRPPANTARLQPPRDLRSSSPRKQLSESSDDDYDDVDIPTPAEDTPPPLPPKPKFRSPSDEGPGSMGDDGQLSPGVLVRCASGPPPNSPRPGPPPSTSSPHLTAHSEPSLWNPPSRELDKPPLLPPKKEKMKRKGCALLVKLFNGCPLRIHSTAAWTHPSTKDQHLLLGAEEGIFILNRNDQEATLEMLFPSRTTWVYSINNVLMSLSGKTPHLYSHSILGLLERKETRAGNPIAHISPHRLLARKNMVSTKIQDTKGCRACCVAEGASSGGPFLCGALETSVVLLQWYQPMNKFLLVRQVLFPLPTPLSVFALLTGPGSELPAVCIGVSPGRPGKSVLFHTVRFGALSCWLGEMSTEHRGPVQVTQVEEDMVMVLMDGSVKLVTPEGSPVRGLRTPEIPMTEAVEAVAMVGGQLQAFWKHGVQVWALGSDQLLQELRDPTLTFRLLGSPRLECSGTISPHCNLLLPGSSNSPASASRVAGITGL

Regarding W828A, the “effect of a mutation on the interaction” value in test [1] is “disrupting interaction”.
For the variant W828A, the “effect of a mutation on the interaction” value in test [2], in test [3], in test [4] and in test [5] was “disrupting interaction” each time.
